Experimental data published in patent US20260060994A1, “GLYCOSYLATED COMPOSITIONS AND METHODS OF USE” (Cy Biopharma AG, priority 2023, published 2026).

B1: GLY119: glycosyltransferase (UGT), SEQ ID NO: 16 (protein)
chain: MGSLGHQLHIFFLPFFAHGHMIPSVDMAKLFASRGIKTTIITTPLNAPFFSKTIQKTKELGFDINILTIKFPAAEAGLPEGYENTDAFIFSENAREMTIKFIKATTFLQAPFEKVLQECHPDCIVADVFFPWATDAAAKFGIPRLVFHGTSNFALSASECVRLYEPHKKVSSDSEPFVVPDLPGDIKLTKKQLPDDVRENVENDFSKFLKASKEAELRSFGVVVNSFYELEPAYADYYKKVLGRRAWNVGPVSLCNRDTEDKAGRGKETSIDHHECLKWLDSKKPNSVVYICFGSTTNFSDSQLKEIAAGLEASGQQFIWVVRRNKKGQEDKEDWLPEGFEERMEGVGLIIRGWAPQVLILDHEAIGAFVTHCGWNSTLEGITAGKPMVTWPIFAEQFYNEKLVTDVLKTGVGVGVKEWFRVHGDHVKSEAVEKTITQIMVGEEAEEMRSRAKKLGETARKAVEEGGSSYSDFNALIEELRWRRP
B2: GLY108: glycosyltransferase (UGT), SEQ ID NO: 14 (protein)
chain: MGSQQEHIVMLPFMAQGHIIPFLALAKQIQQRTGFTITIANTPLNIQYLRTTISTSDDSSRPCIRLAELPFCSSDHGLPPNTENTEALSFHQIVDLFHASKTLQAPFHSLVSGIIEKEGRPPLCIISDVFFGWATEVAKSLGTSNVTFTTGGGYGTAAYISLWQNLPHRATDSDYFALPGFPDSCRFHITQLHQYLRAADGTDAWSRYFQPQIALSLDSSGWLCNTAEEIEPHGLEILRNYVKPPVWTIGPLLPPALLNHSLSSGSSIFGQRAWKVSGVSPEKCLDWLDKHPQSSVLYISFGSQNTISPSQMMELALGLEDSGKPFIWVIRPPVGFDIEGEFRAEWLPQNFEQRMAESNQGLIVHKWAPQLEILSHKSTGVFLSHCGWNSVMESLCVGVPIIGWPLAAEQCYNSKMLTEDMGVAVELTRGRQGALERKEVKRVIELVMDSKGKGEEMKKKATEIGEKIRDAMREGGSSLKAMDDFVSTMLSKRQGY
B3: GLY164: glycosyltransferase (UGT), SEQ ID NO: 24 (protein)
chain: MKEKAELVFIPSPSVGHLVSVIVFAKRLLLLDRDNAAGSNNSFSITVLVMQEHTATASDNDAHIKSLAGAGATADVSIRFIGVPKMNPPPLDYFKSPEKFITEYVDSHKDCIKEAIIEHVLNNNVKIAGLVLDFFCSSMIDTANELGVPSYVFFTSGAAFLGFVLHLPTRGGEEFEESEADSADIFTYANPVPYRVLPSLCFNKHGGFSAFENFGRRFKETKGIIVNTFEELESHAVEYLMKCDGVPPVYNVGPMIDLHGDIHARPRGGGTQRDEIIRWLDDQPASSVVFLCFGSMGSFGEEQIKEVASGLGKSGVRFLWSLRKTPPKDRPEMPGEYTCVEDILPRGFQERSKGRGMICGWAPQKEVLAHSAIGGFVSHCGWNSILESVWFGVPIVTWPIYAEQQINAFQMVRDLGLAVELRLDYRRGTENHVMADELARAVGCVMDGDSEVRKRVKEVSEKARLALRDGGSSYAATGRLIEDLFGSVS

assay: Glycosylation of 4-HO-MET by GLY enzymes (UDP-glucose), LC-UV/MS; type: biochemical; details: 0.5 mM 4-OH-MET, 1.25 mM UDP-glucose, 25% (v/v) GLY enzyme, 24 h at 30° C.; estimate from UV peak areas
Protocol: 4-HO-MET was dissolved in 100% (v/v) DMSO to a concentration of 10 mM. The solution was stored at −20° C. prior to use.
FastAP phosphatase (1 U/uL) from ThermoFisher Scientific (catalog no. EF0651).
GLY enzyme suspensions contain 10 mM Tris-HCl at pH7.4, 250 mM imidazole and 50% (v/v) glycerol.
The assay conditions were: • 100 mM Tris-HCl, pH 7.4 • 5 mM MgCl2 • 1 mM KCl • 1.25 mM UDP-glucose • 0.5 mM 4-OH-MET • 5% (v/v) DMSO • 0.1 U/uL Fast AP phosphatase • 25% (v/v) GLY enzyme
Incubation was 24 house at 30° C. Reactions were terminated adding 3 volumes of 75% (v/v) ethanol.
LC separation was performed using an Agligen 1290 Infinity II UHPLC equipped with a Phenomenex Kinetex XB-C18 column (1.7 um, 100 angstroms, 100×2.1 mm) and 4-HO-MET was detected by absorbance at 210 nm and 268 nm with an Agilent 1260 Infinity II DAD.
0.1% Formic acid in water (A) and 0.1% Formic acid in acetonitrile (B) were used as the mobile phases for the elution gradient, with a flow rate of 0.4 ml/min. Retention time for 4-HO-MET using this type of instrument under these condition was 2.6 min. The system was coupled to an Ultivo Triple Quadrupole MS. To verify the presence of possible glycoside products, as SIM (Selected Ion Monitoring) method was used on the MS to analyse for the m/z 381 (theoretical mass to chart ratio of 4-HO-MET-glucoside) and m/z 219 (theoretical mass to charge ratio of 4-HO-MET).
As standard, 4-HO-MET solutions at a concentrations of 500, 250, 125, 62.5, and 31.25 uM were prepared from the 10 mM stock and used for caliboration.
A representative example of the chromatograms obtained with a wavelength of 268 nm for the standard solutions resuspended in the reaction buffer, and the corresponding MS-SIM signal, is shown in FIG. 16. The peak corresponding to 4-HO-MET is indicated.
When analyzing the GLY reactions, 30 of them gave an additional peak with retention time 2.2 min (i.e. in the expected region for a 4-HO-MET glucoside) and molecular mass compatible with the expected glucoside product, together with a corresponding decrease in substrate concentration, compared to the no-enzyme controls.
The method was repeated using various GLY enzymes to produce 4-HO-MET glucosides.
The enzymes giving the additional peak putatively corresponding to the 4-HO-MET-β-D-glucoside are listed below. […] A correct quantification of the product is not possible without a standard for the specific molecule. However, based on the assumption that the ratio area-to-concentration in the UV chromatograms will be similar to 4-HO-MET, estimates of the relative abundance for the additional peak are also given, expressed as percentage of converted 4-HO-MET. GLY enzymes hits are ranked according to their estimated conversion efficiency.

Molecule | 4-OH-MET GLY % (percentage of converted 4-HO-MET) [%]
B1 | 6
B2 | 8.7
B3 | 10.2
